# Test results reported in patent publication US20250270339A1 (Alector, published 2025).
# Where a chain is given by its changes, count along the chain named.
# T1: huTfR Apical Domain-Avi-His (human, biotin on the Avi tag (BirA) where captured on streptavidin)
# T1 construct: also called huTfR apical Avi-His; hTfR Apical
# T1 chain: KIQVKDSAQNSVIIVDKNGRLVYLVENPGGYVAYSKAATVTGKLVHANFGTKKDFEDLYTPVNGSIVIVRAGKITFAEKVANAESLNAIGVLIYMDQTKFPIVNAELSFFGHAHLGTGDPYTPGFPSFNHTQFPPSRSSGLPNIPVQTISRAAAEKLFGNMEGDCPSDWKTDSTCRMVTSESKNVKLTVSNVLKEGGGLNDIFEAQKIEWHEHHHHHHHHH
# B1: TfR13 (mouse hybridoma antibody) (antibody, V domains shown)
# VH: DVKLVESGGGLVKPGGSLKLSCAASGFTFSSYTMSWVRQTPEKRLEWVATISSGGSYTYFPDSVKGRFTISRDNAKNTLYLQMSSLKSEDTAIYYCTRAHYYAYDYWGQGTTLTVSS
# VL: DILLTQSPAILSVSPGERVSFSCRASQSIGTSIHWYQQRTNGSPRLLIKYASGSISGIPSRFSGSGSGTDFTLSINSVESEDIADYYCQQSNSWPTSTFGAGTKLELK
# notes: mouse IgG in hybridoma supernatant
# B2: TfR6 (mouse hybridoma antibody) (antibody, V domains shown)
# VH: DVQLVESGGGLVQPGGSRKLSCAASGFTFSSFGMHWVRQAPEKGLEWVAYISSGSSAIYYADTVKGRFTVSRDNPKNTLFLQMTSLRSEDTAIYYCATSYVYDPPWFAYWGQGTLVTVSA
# VL: DIVMTQSHKFMSTSVGDRVSITCKASQDVSTAVAWYQQKPGQSPKLLIYWASTRPTGVPDRFTGSGSGTDYTLTISSVQAEDLALYSCQQHFSTPWTFGGGTKLEIK
# notes: as for B1
# B3: TfR15 (mouse hybridoma antibody) (antibody, V domains shown)
# VH: QVQLQQPGSELVRPGASVKLSCKASGYTFTSYWMHWVKQRPGQGLEWIGNIYPGSGSSNYDEKFKSKATLTVDTSSSTAYMQLNSLTSEDSAVYYCTRSSYYGNFDTMDNWGQGTSVTVSS
# VL: QIVLTQSPAIMSASPGEKVTMTCSASSSIRYMNWYQQKPVTSPKRWIYDTSTLASGVPARFSGSGSGTSYSLTISSMEAEDAATYYCHQRSSYPWTFGGGTKLEIK
# notes: as for B1
# B4: TfR22 (mouse hybridoma antibody) (antibody, V domains shown)
# VH: DVQLQESGPGLVKPSQSLSLTCTVTGYSITSDYAWNWIRQFPGNKLEWMGYISYSGSTRYNPSLKSRISITRDTSKNQFFLQLNSVTTEDTATYYCTSWGYRYLEDYWGQGTSVTVSA
# VL: B3 VL with K18R, R30S, Y31S, N33H, V40G, R45K, T52K
# notes: as for B1
# B5: TfR27 (mouse hybridoma antibody) (antibody, V domains shown)
# VH: B3 VH with S55T, S58T, N84S, N110Y
# VL: B3 VL with V3F, K18R, V40G, T52E, S62T, S92G
# notes: as for B1
# B6: TfR28 (mouse hybridoma antibody) (antibody, V domains shown)
# VH: B4 VH with R59S, K65R, T97A, S98I, W99R, L104E, S113T, V114L, A118S
# VL: B3 VL with G16R, R30S, Y31S, N33H, V40G, T52K
# notes: as for B1
# B7: TfR23 (mouse hybridoma antibody) (antibody, V domains shown)
# VH: B4 VH with R59S, A118S
# VL: B3 VL with K18R, R30S, Y31S, M32L, N33H, V40G, R45K, T52K, T73A
# notes: as for B1
# B8: TfR31 (mouse hybridoma antibody) (antibody, V domains shown)
# VH: B4 VH with S57R, R59S, I70F, T97A, S98G, A118S
# VL: B3 VL with R30S, Y31S, N33H, Q37L, V40G, R45K, T52K
# notes: as for B1
# B9: TfR17 (mouse hybridoma antibody) (antibody, V domains shown)
# VH: B4 VH with R59S, T97A, A118S
# VL: B3 VL with R30S, Y31S, N33H, V40G, Y48S, T52K, V57I, E78A, T84A
# notes: as for B1
# B10: TfR7 (mouse hybridoma antibody) (antibody, V domains shown)
# VH: DVQLQESGPGLVKPSQSLSLTCTVTGYSITSDYAWNWLRQFPGNKLEWMGYISYSGYSRHNPSLKSRISITRDTSKNQFFLQLNSVTSEDTATYYCARGDWDFDYWGQGTTLTVSS
# VL: DIVMTQSQKFMSTSVGDRVSVTCKASQNVLTNVAWYQQKPGHSPKALIYSSSSRNSGVPDRFTGSGSGTDFTLTISNVQSEDLAEYFCQQYNTYPYTFGGGTKLEIK
# notes: as for B1
# B11: TfR10 (mouse hybridoma antibody) (antibody, V domains shown)
# VH: QVQLQQSGPELVKPGASVKMSCKASGYTFTSYYIHWVKQRPGQGLEWIGWIYPGDGNTNYNEKFKGKTTLTADKSSSTAYMLLSSLTSEDSAIYFCARDGSIPFAYWGQGTLVTVSA
# VL: DIVMTQSPSSLTVTAGEKVTMSCKSSQSLLNSGNQKNYLTWYQQKPGQPPKLLIYWASTRESGVPDRFTGSGSGTDFTLTISSVQAEDLAVYYCQNDYSYPLTFGAGTKLELK
# notes: as for B1
# B12: TfR24 (mouse hybridoma antibody) (antibody, V domains shown)
# VH: B11 VH with A16T, G56D, N59H, K63N, G100Y, S101Y, I102G, P103R
# VL: B11 VL with K18R, Y42F, L79V, S99G
# notes: as for B1
# B13: TfR9 (mouse hybridoma antibody) (antibody, V domains shown)
# VH: EVQLQQSGPELVKPGASVKISCKTSGYTFTEYAMHWVKQSHGKSLEWIGGINPNDGGTSYNQKFKGKATLTVDKSSSTAYMELRSLTSEDSAVYYCSSQRWLLRGGDYWGQGTTLTVSS
# VL: not shown
# notes: as for B1
# B14: TfR11 (mouse hybridoma antibody) (antibody, V domains shown)
# VH: EVQLQQSGTVLARPGASVKMSCKASGYSFTSYWMHWVKQRPGQGLEWIGAIFPGNIDTIYNQKFKDKAKLTAVTSASTAYMELSSLTNEDSAVYFCTRLYYDYVWGAGTTVTVSS
# VL: DIKMTQSPSSMYASLGERVTLTCKASQDINSYLSWFQQKPGKSPKTLIYHVNRLVDGVPSRFSGSGSGQDYSLTISSLEYEDMGIYYCLQYDEFPYTFGGGTKLEIK
# notes: as for B1
# B15: TfR16 (mouse hybridoma antibody) (antibody, V domains shown)
# VH: EVQLQQSGTVLARPGASVKMSCKTSGYSFSSYWMHWVKQRPGQGLEWIGTIYPGNSDTIYNQNFKGKAKLTAVTSASTAYMELSSLTNEDSAVYYCSTIYYFSNWGQGTTLTVSS
# VL: B14 VL with S10P, Y12F, L21I, H50R, V51A, V55L, E79D, M83V, E93V
# notes: as for B1
# Molecular target: T1, huTfR Apical Domain-Avi-His
# Assay: ELISA OD450, supernatant
# Protocol: Hybridoma culture supernatants from 319 hybridomas obtained as described above were screened for their ability to bind Avi-His-tagged huTfR ECD, huTfR apical domain, and muTfR ECD (as described in Example 1) as compared to binding to an irrelevant Avi-His-tagged control protein. Briefly, 96-well polystyrene plates were coated with 5 μg/ml of streptavidin (Thermo Fisher, Cat #PI21125) in coating buffer (0.05M carbonate buffer, pH 9.6, Sigma, Cat #C3041) overnight at 4° C. Coated plates were then blocked with ELISA diluent (PBS+0.5% BSA+0.05% Tween20) for one hour. Blocking buffer was removed and Avi-His-tagged human TfR, human TfR apical domain, mouse TfR and an irrelevant Avi-His-tagged protein were added at 1 μg/ml in ELISA diluent and captured for 1 hour at room temperature. After washing three times with 300 μl of PBST (PBS+0.05% Tween20, Thermo 28352), the hybridoma cell culture supernatants were added (50 μl/well) to each well. After 30 minutes of incubation at room temperature, the plates were washed three times with 300 μl of PBST. Anti-mouse IgG Fc-HRP or anti-rat IgG Fc-HRP (Jackson Immunoresearch, Cat #115-035-071 and 112-036-071, respectively) secondary antibodies were diluted 1:5000 in ELISA diluent, added to each well at 50 μl/well, and incubated for 30 minutes at room temperature with shaking. After a final set of washes (3×300 μl in PBST), 50 μl/well of BioFx TMB substrate (Surmodics, Cat #TMBW-1000-01) was added to the wells. The reaction was then quenched after 5-10 mins with 50 μl/well of 2N sulfuric acid. The plates were read for absorbance at 450 nm on a SpectraMax M5 (Molecular Devices, Sunnyvale, CA) using SoftMax Pro software.
row,ratio over irrelevant protein [fold],Binder
1,22,B1
2,37,B2
3,34,B3
4,33,B4
5,34,B5
6,30,B6
7,31,B7
8,20,B8
9,26,B9
10,48,B10
11,35,B11
12,31,B12
13,10,B13
14,39,B14
15,18,B15

# Molecular target: T2, Full length human TfR on CHO cells (human, UniProt P02786 1-760)
# T2 construct: also called CHO + huTfR; CHO + hTfR
# T2 sequence (P02786 whole entry): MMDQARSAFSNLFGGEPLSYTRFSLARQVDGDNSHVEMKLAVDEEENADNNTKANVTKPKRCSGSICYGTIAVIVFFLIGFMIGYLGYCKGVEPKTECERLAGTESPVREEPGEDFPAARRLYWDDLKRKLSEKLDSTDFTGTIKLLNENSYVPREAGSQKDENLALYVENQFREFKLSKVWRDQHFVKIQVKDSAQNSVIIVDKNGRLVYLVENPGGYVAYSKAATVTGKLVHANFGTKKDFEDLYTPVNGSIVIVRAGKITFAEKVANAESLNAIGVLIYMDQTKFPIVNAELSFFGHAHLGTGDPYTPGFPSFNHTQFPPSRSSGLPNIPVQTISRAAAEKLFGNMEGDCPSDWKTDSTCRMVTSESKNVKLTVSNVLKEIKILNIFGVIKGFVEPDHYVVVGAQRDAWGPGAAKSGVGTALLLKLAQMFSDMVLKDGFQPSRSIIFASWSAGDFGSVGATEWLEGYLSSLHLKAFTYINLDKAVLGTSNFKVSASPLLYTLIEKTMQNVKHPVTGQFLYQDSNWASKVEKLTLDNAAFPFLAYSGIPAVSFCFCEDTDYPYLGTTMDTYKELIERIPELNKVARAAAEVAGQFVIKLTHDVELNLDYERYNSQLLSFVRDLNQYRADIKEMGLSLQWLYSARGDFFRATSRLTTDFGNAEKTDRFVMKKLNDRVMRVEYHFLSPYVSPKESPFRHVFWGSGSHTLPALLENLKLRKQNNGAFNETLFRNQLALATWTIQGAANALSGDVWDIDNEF
# Assay: FACS MFI, supernatant
# Protocol: (§1) A total of 1536 anti-TfR hybridoma supernatants were initially screened for their ability to differentially bind CHO cells overexpressing human or mouse TfR cells compared to CHO parental cells by FACS. Overexpressing cells were harvested, washed and labeled with Pacific Blue, FITC and Pacific Orange dyes (ThermoFisher) to create uniquely barcoded cell populations. Barcoded cells (5×10⁴ of each cell population) were aliquoted into 96-well U-bottom plates and incubated with 50 μl of hybridoma cell culture supernatant or […] of commercially available purified mouse anti-human TfR monoclonal antibody (Sigma Aldrich, Cat #SAB4700515) and rat anti-mouse TfR antibody (Invitrogen, Waltham, MA, Cat #R17217) on ice for 30 minutes. After this primary incubation, the supernatants were removed via centrifugation, the cells were washed twice with 175 μl of ice-cold FACS buffer (PBS+1% FBS+2 mM EDTA), and the cells were then further incubated on ice for 20 minutes with anti-mouse IgG Fc-allophycocyanin (APC) or anti-rat IgG Fc-APC (Jackson Labs, Cat #115-136-071 and Cat #112-136-071, respectively) (diluted 1:1000). Following this secondary antibody incubation, the cells were again washed twice with ice-cold FACS buffer and resuspended in a final volume of 50 μl of FACS buffer. Binding intensity on cells was analyzed using the FACS Canto system (BD Biosciences), and the ratio of APC Mean Fluorescence Intensity (MFI) on each barcoded cell population was determined for each anti-TfR hybridoma supernatant tested.
row,fold over parental (CHO WT) [fold],Binder
1,392,B1
2,451,B2
3,119,B3
4,290,B4
5,279,B5
6,157,B6
7,279,B7
8,90,B8
9,73,B9
10,87,B10
11,389,B11
12,370,B12
13,203,B13
14,290,B14
15,534,B15

# Molecular target: T3, Full length Mouse TfR on CHO cells (mouse, UniProt Q62351 1-763)
# T3 construct: also called CHO + muTfR
# T3 sequence (Q62351 whole entry): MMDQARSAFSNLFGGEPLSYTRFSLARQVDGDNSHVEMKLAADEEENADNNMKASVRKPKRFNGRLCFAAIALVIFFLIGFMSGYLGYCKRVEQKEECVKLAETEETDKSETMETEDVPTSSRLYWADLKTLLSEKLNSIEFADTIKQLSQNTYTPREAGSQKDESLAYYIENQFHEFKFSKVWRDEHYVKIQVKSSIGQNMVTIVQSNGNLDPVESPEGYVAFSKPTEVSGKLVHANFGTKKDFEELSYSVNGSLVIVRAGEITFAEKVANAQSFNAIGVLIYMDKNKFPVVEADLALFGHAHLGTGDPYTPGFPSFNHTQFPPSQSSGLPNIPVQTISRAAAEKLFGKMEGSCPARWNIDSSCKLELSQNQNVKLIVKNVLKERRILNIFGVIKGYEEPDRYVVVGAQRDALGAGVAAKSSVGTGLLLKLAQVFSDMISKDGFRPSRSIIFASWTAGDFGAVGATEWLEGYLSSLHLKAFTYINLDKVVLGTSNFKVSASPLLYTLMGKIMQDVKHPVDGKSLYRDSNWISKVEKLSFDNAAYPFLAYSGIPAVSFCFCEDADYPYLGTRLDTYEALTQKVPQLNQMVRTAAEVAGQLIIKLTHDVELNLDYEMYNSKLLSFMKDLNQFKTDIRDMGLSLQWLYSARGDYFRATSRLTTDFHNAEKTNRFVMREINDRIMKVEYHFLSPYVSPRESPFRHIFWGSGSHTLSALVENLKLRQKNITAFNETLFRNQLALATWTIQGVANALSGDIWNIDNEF
# Assay: FACS MFI, supernatant
# Protocol: as §1
row,fold over parental (CHO WT) [fold],Binder
1,1,B1
2,1,B2
3,1,B3
4,1,B4
5,1,B5
6,1,B6
7,1,B7
8,1,B8
9,1,B9
10,1,B10
11,1,B11
12,1,B12
13,1,B13
14,1,B14
15,1,B15

# Molecular target: T3, Full length Mouse TfR on CHO cells
# Assay: FACS, CHO+muTfR
# Protocol: as §1
row,binding result,Binder
1,no binding,B1
2,no binding,B2
3,no binding,B3
4,no binding,B4
5,no binding,B5
6,no binding,B6
7,no binding,B7
8,no binding,B8
9,no binding,B9
10,no binding,B10
11,no binding,B11
12,no binding,B12
13,no binding,B13
14,no binding,B14
15,no binding,B15
